{"source": "patent US11655308B2", "about": "“HM-3 fusion protein and application thereof” (TASLY BIOPHARMACEUTICALS CO., LTD., priority 2017, dated 2023)", "experiment": "Pharmacokinetics after single subcutaneous injection (double-antibody sandwich ELISA)", "note": "Several values for one entry are separate records, joined by “and”; a condition that tells them apart may be missing. Equal values may be shown once.", "protocol": "(1) 18 SD rats (half male and half female) were purchased and fed for one week.\n(2) Rats were divided into 3 groups, half male and half female, and weight of rats were recorded respectively.\nThe blood was centrifuged at 12000 rpm/min to take 200 μL of supernatant, then the supernatant was diluted with PBS solution according to a ratio of 1:3, and finally placed in an EP tube and stored in a −80° C. refrigerator.\n(4) Biological samples were measured by double-antibody sandwich ELISA.\n(1) Coating, HM-3 monoclonal antibody was diluted with a coating buffer (CBS) in certain concentration, added to an ELISA plate and coated overnight.\n(2) Plate washing, the coating buffer was discarded, and the plate was washed by PBST for 3 times, and then dried by patting.\n(3) Sealing, a blocking buffer was added for sealing at 37.5° C., the plate washing process was repeated and the plate was dried by patting.\n(4) Addition of samples to be measured, the samples to be measured were added to the ELISA plate with multiple wells, and then incubated at 37.5° C.; the plate washing process was repeated and the plate was dried by patting.\n(5) Addition of a secondary antibody, the secondary antibody diluted proportionally was added for incubation at 37.5° C. The plate washing process was repeated and the plate was dried by patting.\n(6) Addition of the enzyme-labeled secondary antibody for reaction, the HRP-labeled secondary antibody which was diluted by 5% skim milk powder solution according to certain proportion was added for incubation at 37.5° C. The plate washing process was repeated and the plate was dried by patting.\n(7) Addition of a substrate, a TMB substrate in certain volume L was added for reaction in the dark.\n(8) Termination of the reaction, a certain amount of stop buffer was added to terminate the reaction.\n(9) Detection, read OD450 nm with a microplate reader."}
{"substance": "mIgG4-Fc-(GGGGS)3-HM-3 [TSL-4]", "values": [{"measurement": "Plasma concentration", "setting": "12.5 mg/kg sc, 20.00 h, single rats No. 1-5", "result": "1900 ng/mL and 3086 ng/mL and 5605 ng/mL and 3962 ng/mL and 12480 ng/mL"}, {"measurement": "Plasma concentration", "setting": "12.5 mg/kg sc, 24.00 h, Mean", "result": 4248, "unit": "ng/mL"}, {"measurement": "Plasma concentration", "setting": "12.5 mg/kg sc, 24.00 h, single rats No. 1-5", "result": "1822 ng/mL and 2513 ng/mL and 2747 ng/mL and 3966 ng/mL and 10192 ng/mL"}, {"measurement": "Plasma concentration", "setting": "12.5 mg/kg sc, 28.00 h, Mean", "result": 1907, "unit": "ng/mL"}, {"measurement": "Plasma concentration", "setting": "12.5 mg/kg sc, 28.00 h, single rats No. 1-5", "result": "336 ng/mL and 1653 ng/mL and 766 ng/mL and 2703 ng/mL and 4077 ng/mL"}, {"measurement": "Plasma concentration", "setting": "12.5 mg/kg sc, 41.00 h, Mean", "result": 746, "unit": "ng/mL"}, {"measurement": "Plasma concentration", "setting": "12.5 mg/kg sc, 41.00 h, single rats No. 1-5", "result": "241 ng/mL and 700 ng/mL and 417 ng/mL and 1185 ng/mL and 1189 ng/mL"}, {"measurement": "Plasma concentration", "setting": "12.5 mg/kg sc, 53.00 h, Mean", "result": 402, "unit": "ng/mL"}, {"measurement": "Plasma concentration", "setting": "12.5 mg/kg sc, 53.00 h, single rats No. 1-5", "result": "131 ng/mL and 542 ng/mL and 247 ng/mL and 734 ng/mL and 357 ng/mL"}, {"measurement": "Plasma concentration", "setting": "12.5 mg/kg sc, 65.00 h, Mean", "result": 330, "unit": "ng/mL"}, {"measurement": "Plasma concentration", "setting": "12.5 mg/kg sc, 65.00 h, single rats No. 1-5", "result": "127 ng/mL and 396 ng/mL and 181 ng/mL and 648 ng/mL and 299 ng/mL"}, {"measurement": "Plasma concentration", "setting": "12.5 mg/kg sc, 77.00 h, Mean", "result": 261, "unit": "ng/mL"}, {"measurement": "Plasma concentration", "setting": "12.5 mg/kg sc, 77.00 h, single rats No. 1-5", "result": "64 ng/mL and 285 ng/mL and 160 ng/mL and 505 ng/mL and 290 ng/mL"}, {"measurement": "AUC 0-77", "setting": "12.5 mg/kg single sc", "result": 116.1901, "unit": "µg·h/mL"}, {"measurement": "AUC 0-∞", "setting": "12.5 mg/kg single sc", "result": 128.4302, "unit": "µg·h/mL"}, {"measurement": "MRT 0-77", "setting": "12.5 mg/kg single sc", "result": 18.248, "unit": "h"}, {"measurement": "MRT 0-∞", "setting": "12.5 mg/kg single sc", "result": 20.882, "unit": "h"}, {"measurement": "Tmax", "setting": "12.5 mg/kg single sc", "result": "7 ± 0.707", "unit": "h"}, {"measurement": "ka", "setting": "12.5 mg/kg single sc", "result": 0.247}, {"measurement": "t½ka (absorption half-life)", "setting": "12.5 mg/kg single sc", "result": 3.249, "unit": "h"}, {"measurement": "t½ke (elimination half-life)", "setting": "12.5 mg/kg single sc", "result": "32.321 ± 4.935", "unit": "h"}, {"measurement": "α, ke", "setting": "12.5 mg/kg single sc", "result": 0.149}, {"measurement": "Plasma concentration", "setting": "37.5 mg/kg sc, 0.50 h, Mean", "result": 1402, "unit": "ng/mL"}, {"measurement": "Plasma concentration", "setting": "37.5 mg/kg sc, 0.50 h, single rats No. 1-5", "result": "1180 ng/mL and 1202 ng/mL and 1816 ng/mL and 1534 ng/mL and 1277 ng/mL"}, {"measurement": "Plasma concentration", "setting": "37.5 mg/kg sc, 1.00 h, Mean", "result": 2169, "unit": "ng/mL"}, {"measurement": "Plasma concentration", "setting": "37.5 mg/kg sc, 1.00 h, single rats No. 1-5", "result": "1974 ng/mL and 1514 ng/mL and 2370 ng/mL and 1151 ng/mL and 3838 ng/mL"}, {"measurement": "Plasma concentration", "setting": "37.5 mg/kg sc, 3.00 h, Mean", "result": 13349, "unit": "ng/mL"}, {"measurement": "Plasma concentration", "setting": "37.5 mg/kg sc, 3.00 h, single rats No. 1-5", "result": "23044 ng/mL and 13341 ng/mL and 9819 ng/mL and 5861 ng/mL and 14678 ng/mL"}, {"measurement": "Plasma concentration", "setting": "37.5 mg/kg sc, 5.00 h, Mean", "result": 19696, "unit": "ng/mL"}, {"measurement": "Plasma concentration", "setting": "37.5 mg/kg sc, 5.00 h, single rats No. 1-5", "result": "36313 ng/mL and 18726 ng/mL and 10891 ng/mL and 12949 ng/mL and 19600 ng/mL"}, {"measurement": "Plasma concentration", "setting": "37.5 mg/kg sc, 6.00 h, Mean", "result": 27920, "unit": "ng/mL"}, {"measurement": "Plasma concentration", "setting": "37.5 mg/kg sc, 6.00 h, single rats No. 1-5", "result": "44277 ng/mL and 20173 ng/mL and 20450 ng/mL and 16158 ng/mL and 38541 ng/mL"}, {"measurement": "Plasma concentration", "setting": "37.5 mg/kg sc, 7.00 h, Mean", "result": 35272, "unit": "ng/mL"}, {"measurement": "Plasma concentration", "setting": "37.5 mg/kg sc, 7.00 h, single rats No. 1-5", "result": "64960 ng/mL and 21479 ng/mL and 38009 ng/mL and 22359 ng/mL and 29552 ng/mL"}, {"measurement": "Plasma concentration", "setting": "37.5 mg/kg sc, 8.00 h, Mean", "result": 30478, "unit": "ng/mL"}, {"measurement": "Plasma concentration", "setting": "37.5 mg/kg sc, 8.00 h, single rats No. 1-5", "result": "62784 ng/mL and 25446 ng/mL and 31080 ng/mL and 12944 ng/mL and 20137 ng/mL"}, {"measurement": "Plasma concentration", "setting": "37.5 mg/kg sc, 10.00 h, Mean", "result": 24736, "unit": "ng/mL"}, {"measurement": "Plasma concentration", "setting": "37.5 mg/kg sc, 10.00 h, single rats No. 1-5", "result": "44656 ng/mL and 21055 ng/mL and 21153 ng/mL and 10006 ng/mL and 26810 ng/mL"}, {"measurement": "Plasma concentration", "setting": "37.5 mg/kg sc, 12.00 h, Mean", "result": 19172, "unit": "ng/mL"}, {"measurement": "Plasma concentration", "setting": "37.5 mg/kg sc, 12.00 h, single rats No. 1-5", "result": "36576 ng/mL and 17149 ng/mL and 17361 ng/mL and 8919 ng/mL and 15856 ng/mL"}, {"measurement": "Plasma concentration", "setting": "37.5 mg/kg sc, 16.00 h, Mean", "result": 11084, "unit": "ng/mL"}, {"measurement": "Plasma concentration", "setting": "37.5 mg/kg sc, 16.00 h, single rats No. 1-5", "result": "13903 ng/mL and 7767 ng/mL and 12942 ng/mL and 6885 ng/mL and 13925 ng/mL"}, {"measurement": "Plasma concentration", "setting": "37.5 mg/kg sc, 20.00 h, Mean", "result": 7721, "unit": "ng/mL"}, {"measurement": "Plasma concentration", "setting": "37.5 mg/kg sc, 20.00 h, single rats No. 1-5", "result": "9514 ng/mL and 3313 ng/mL and 9915 ng/mL and 4605 ng/mL and 11259 ng/mL"}, {"measurement": "Plasma concentration", "setting": "37.5 mg/kg sc, 24.00 h, Mean", "result": 4523, "unit": "ng/mL"}, {"measurement": "Plasma concentration", "setting": "37.5 mg/kg sc, 24.00 h, single rats No. 1-5", "result": "4801 ng/mL and 3205 ng/mL and 5617 ng/mL and 3076 ng/mL and 5918 ng/mL"}, {"measurement": "Plasma concentration", "setting": "37.5 mg/kg sc, 28.00 h, Mean", "result": 2285, "unit": "ng/mL"}, {"measurement": "Plasma concentration", "setting": "37.5 mg/kg sc, 28.00 h, single rats No. 1-5", "result": "1952 ng/mL and 2730 ng/mL and 3953 ng/mL and 1833 ng/mL and 959 ng/mL"}, {"measurement": "Plasma concentration", "setting": "37.5 mg/kg sc, 41.00 h, Mean", "result": 920, "unit": "ng/mL"}, {"measurement": "Plasma concentration", "setting": "37.5 mg/kg sc, 41.00 h, single rats No. 1-5", "result": "780 ng/mL and 912 ng/mL and 1824 ng/mL and 779 ng/mL and 303 ng/mL"}, {"measurement": "Plasma concentration", "setting": "37.5 mg/kg sc, 53.00 h, Mean", "result": 407, "unit": "ng/mL"}, {"measurement": "Plasma concentration", "setting": "37.5 mg/kg sc, 53.00 h, single rats No. 1-5", "result": "431 ng/mL and 466 ng/mL and 510 ng/mL and 391 ng/mL and 237 ng/mL"}, {"measurement": "Plasma concentration", "setting": "37.5 mg/kg sc, 65.00 h, Mean", "result": 312, "unit": "ng/mL"}, {"measurement": "Plasma concentration", "setting": "37.5 mg/kg sc, 65.00 h, single rats No. 1-5", "result": "357 ng/mL and 301 ng/mL and 370 ng/mL and 291 ng/mL and 243 ng/mL"}, {"measurement": "Plasma concentration", "setting": "37.5 mg/kg sc, 77.00 h, Mean", "result": 215, "unit": "ng/mL"}, {"measurement": "Plasma concentration", "setting": "37.5 mg/kg sc, 77.00 h, single rats No. 1-5", "result": "269 ng/mL and 253 ng/mL and 169 ng/mL and 244 ng/mL and 138 ng/mL"}, {"measurement": "AUC 0-77", "setting": "37.5 mg/kg single sc", "result": 166.338, "unit": "µg·h/mL"}, {"measurement": "AUC 0-∞", "setting": "37.5 mg/kg single sc", "result": "176.11 ± 39.59645", "unit": "µg·h/mL"}, {"measurement": "MRT 0-77", "setting": "37.5 mg/kg single sc", "result": 13.988, "unit": "h"}, {"measurement": "MRT 0-∞", "setting": "37.5 mg/kg single sc", "result": 15.755, "unit": "h"}, {"measurement": "Tmax", "setting": "37.5 mg/kg single sc", "result": "7 ± 0.707", "unit": "h"}, {"measurement": "ka", "setting": "37.5 mg/kg single sc", "result": 0.116}, {"measurement": "t½ka (absorption half-life)", "setting": "37.5 mg/kg single sc", "result": 3.079, "unit": "h"}, {"measurement": "t½ke (elimination half-life)", "setting": "37.5 mg/kg single sc", "result": "34.356 ± 1.578 h and 34.355 h"}, {"measurement": "α, ke", "setting": "37.5 mg/kg single sc", "result": 0.197}, {"measurement": "pharmacokinetic characteristics", "setting": "4.17, 12.5, 37.5 mg/kg sc", "result": "consistent with linear pharmacokinetic characteristics"}]}
